Measured values from publication PMC7747229 (Nature, 2020).
Values joined by “and” are separate entries in the source; they are usually repeats but may differ in a detail not shown here. Equal entries are not always repeated.

Biological target: the molecule itself
Assay: cryo-EM structure

B1: KAT1em (KAT1 from Arabidopsis thaliana, amino acids M1-S502) (domain or fragment)
chain: not shown
stoichiometry N: 8 and 4
